Results from patent publication US20120165267A1 (Genentech, published 2012).

Tests used:
DR5-IgG [1] = target: T1, DR5-IgG (human, UniProt O14763 56-184); test: BIAcore, immobilized receptor-IgG
T1 construct: also called Apo-2-IgG; not shown: IgG part; prepared as in WO98/51793, not described here

DR5-IgG [2] = target: T1, DR5-IgG; test: BIAcore; against Flag.Apo2L.WT
Description: (§1) Briefly, dissociation constants (Kd) for binding of Apo-2L variants (see Tables II and III) to immobilized receptor immunoadhesins were determined from surface plasmon resonance (SPR) measurements on a Pharmacia BIAcore 3000. DR5-IgG (also referred to as Apo-2-IgG) and DcR2-IgG receptor immunoadhesins were prepared as described in WO98/51793 published Nov. 19, 1998 and WO99/10484 published Mar. 9, 1999, respectively. DR4-IgG was prepared as follows. […] Sensorgrams were recorded for Apo-2L binding at concentrations ranging from 15.6 nM to 500 nM in 2-fold increments. The kinetics constants were determined by non-linear regression analysis and used to calculate the binding constants.

DR5-IgG [3] = target: T1, DR5-IgG; test: AlphaQuest (CARB-AQ) displacement of biotinylated Apo2L/TRAIL from receptor-IgG; against Flag-Apo2L.WT
DcR2-IgG = target: T2, DcR2-IgG (UniProt Q9UBN6 56-211); test: as above
T2 sequence (Q9UBN6 whole entry, species assumed, looked up): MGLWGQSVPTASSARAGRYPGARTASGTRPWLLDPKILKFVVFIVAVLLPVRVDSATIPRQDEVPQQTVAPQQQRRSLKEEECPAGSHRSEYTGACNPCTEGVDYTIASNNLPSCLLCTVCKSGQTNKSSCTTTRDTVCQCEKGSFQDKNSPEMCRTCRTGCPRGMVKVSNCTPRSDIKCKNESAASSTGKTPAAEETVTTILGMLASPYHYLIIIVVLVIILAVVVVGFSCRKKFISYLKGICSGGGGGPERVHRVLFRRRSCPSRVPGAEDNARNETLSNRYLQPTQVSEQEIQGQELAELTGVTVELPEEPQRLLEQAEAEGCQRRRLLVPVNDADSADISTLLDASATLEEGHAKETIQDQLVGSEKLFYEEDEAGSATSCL

DcR1 receptor-IgG = target: T3, DcR1 receptor-IgG (UniProt O14798 26-236); test: as above
T3 construct: Captured as receptor-IgG on Protein A beads; construct not described
T3 sequence (O14798 whole entry, species assumed, looked up): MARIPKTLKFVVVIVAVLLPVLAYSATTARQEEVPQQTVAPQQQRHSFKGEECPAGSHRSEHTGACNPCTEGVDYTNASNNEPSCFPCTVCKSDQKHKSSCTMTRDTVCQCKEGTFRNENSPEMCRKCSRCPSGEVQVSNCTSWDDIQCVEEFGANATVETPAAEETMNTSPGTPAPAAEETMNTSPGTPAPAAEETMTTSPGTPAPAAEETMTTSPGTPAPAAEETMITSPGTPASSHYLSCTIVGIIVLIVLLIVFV

DR5-IgG [4] = target: T1, DR5-IgG; test: BIAcore, immobilized receptor-IgG; against wild-type Apo2L/TRAIL(114-281)
Description: as §1
KD values determined by BIAcore analysis are reported relative to the value calculated for the wild-type protein. Apoptosis-induction is evaluated from the ED₅₀ value (ng/mL) in the presence and absence of 2 μg/mL M2 antibody (Sigma).

BSA = target: T4, BSA (UniProt P02769 25-607); test: spot ELISA, phage on coated protein
T4 construct: Control protein of the spot ELISA

DR5-IgG [5] = target: T1, DR5-IgG; test: competition phage ELISA: phage clone on wells coated with DR4-IgG, competed by rising soluble DR5-IgG, bound phage detected with anti-M13 antibody-HRP, A450
Description: Relative binding strengths for 4 of the clones from the DR4 library were determined by competition phage ELISA (FIGS. 15 and 16). In this assay, a fixed concentration of phage is added to wells coated with receptor-IgG in the presence of an increasing concentration of receptor-IgG in solution. After incubation to allow binding and washing to remove unbound phage, the bound phage is determined with the HRP-coupled, anti-M13 antibody (Pharmacia). Analysis of the ELISA signal as a function of receptor-IgG concentration in solution by using a 4-parameter fit yields the IC50 value. Since the IC50 value will vary with phage concentration, the phage clones were first titered to determine the dilution giving equal signal strength for the 4 clones.

B1: Apo2L.DR5-8 (ligand)
chain: VRERGPQRVAAHITGTRGRSNTLSSPNSKNEKALGRKINSWESSRSGHSFLSNLHLRNGELVIHEKGFYYIYSQTQFKFREEIKENTKNDKQMVQYIYKYTSYPDPILLMKSARNSCWSKDAEYGLYSIYQGGIFELKENDRIFVSVTNERLLQMDHEASFFGAFLVG
notes: also called Apo2L/TRAIL.DR5-8
B1 was tested, and the “DR5-binding (ratio relative to wild-type Apo2L)” value (DR5-IgG [1]) was 0.6 ratio.

B2: Flag.Apo2L.DR5-2 (ligand)
chain: VRERGPQRVAAHITGTRGRSNTLSSPNSKNEKALGRKINSWESSRSGHSFLSNLHLRNGELVIHEKGFYYIYSQTAFKFKEEIKENTKNDKQMVQYIYKYTSYPDPILLMKSARNSCWSKDAEYGLYSIYQGGIFELKENDRIFVSVTNEHLIDMDHEASFFGAFLVG
notes: not shown: N-terminal flag tag from pFLAG-MAC
In the case of B2, the “DR5 KD (mut/wt)” value (DR5-IgG [2]) is reported as 1.9 ratio, the “IC50 ratio (mutant/wt)” value (DR5-IgG [3]) is reported as 2.8 ratio and the “IC50 ratio (mutant/wt)” value (DcR2-IgG) is reported as 5 ratio.

B3: Apo2L.DR5-8C (ligand)
chain: VRERGPQRVAAHITGTRGRSNTLSSPNSKNEKALGRKINSWESSRSGHSFLSNLHLRNGELVIHEKGFYYIYSQTQFKFREEIKENTKNDKQMVQYIYKYTSYPDPILLMKSARNSCWSKDAEYGLYSIYQGGIFELKENDRIFVSVTNEHLLDMDHEASFFGAFLVG
notes: Subcloned into pAPOK5.0 (114-281 form)
For B3, the “DR5-binding (ratio relative to wild-type Apo2L)” value (DR5-IgG [1]) was 0.6 ratio.

B4: Flag.Apo2L.DR4-8 (ligand)
chain: VRERGPQRVAAHITGTRGRSNTLSSPNSKNEKALGRKINSWESSRSGHSFLSNLHLRNGELVIHEKGFYYIYSQTAFRFSEEIKEVTRNDKQMVQYIYKWTDYPDPILLMKSARNSCWSKDAEYGLYSIYQGGIFELKENDRIFVSVTNEHLIDMDHEASFFGAFLVG
notes: as for B2
B4 was tested, and the “DR5 KD (mut/wt)” value (DR5-IgG [2]) was 1100 ratio, the “IC50 ratio (mutant/wt)” value (DcR2-IgG) was 15 ratio and the “IC50 ratio (mutant/wt)” value (DcR1 receptor-IgG) was 5.5 ratio.

B5: Flag.Apo2L.DR5-21 (ligand)
chain: VRERGPQRVAAHITGTRGRSNTLSSPNSKNEKALGRKINSWESSRSGHSFLSNLHLRNGELVIHEKGFYYIYSQTAFKFKEEIKENTKNDKQMVQYIYKYTSYPDPILLMKSARNSCWSKDAEYGLYSIYQGGIFELKENDRIFVSVTNEDLLNMEHEASFFGAFLVG
notes: as for B2
In the case of B5, the “DR5 KD (mut/wt)” value (DR5-IgG [2]) is reported as 1 ratio, the “IC50 ratio (mutant/wt)” value (DR5-IgG [3]) is reported as 1.9 ratio and the “IC50 ratio (mutant/wt)” value (DcR2-IgG) is reported as 9.4 ratio.

B6: Apo2L/TRAIL(114-281) mutant DR5-23 (ligand)
chain: VRERGPQRVAAHITGTRGRSNTLSSPNSKNEKALGRKINSWESSRSGHSFLSNLHLRNGELVIHEKGFYYIYSQTAFKFREEIKENTKNDKQMVQYIYKYTSYPDPILLMKSARNSCWSKDAEYGLYSIYQGGIFELKENDRIFVSVTNESLLDMEHEASFFGAFLVG
notes: Untagged, from pAPOK5.0
B6 was tested, and the “KD ratio (mutant/wt)” value (DR5-IgG [4]) was 2.4 ratio.

B7: Flag.Apo2L.DR5-1 (ligand)
chain: VRERGPQRVAAHITGTRGRSNTLSSPNSKNEKALGRKINSWESSRSGHSFLSNLHLRNGELVIHEKGFYYIYSQTAFKFKEEIKENTKNDKQMVQYIYKYTSYPDPILLMKSARNSCWSKDAEYGLYSIYQGGIFELKENDRIFVSVTNEALIDMDHEASFFGAFLVG
notes: as for B2
B7 was tested, and the “DR5 KD (mut/wt)” value (DR5-IgG [2]) was 2.2 ratio, the “IC50 ratio (mutant/wt)” value (DR5-IgG [3]) was 2.4 ratio and the “IC50 ratio (mutant/wt)” value (DcR2-IgG) was 32 ratio.

B8: Apo2L/TRAIL(114-281) mutant DR5-11 (ligand)
chain: VRERGPQRVAAHITGTRGRSNTLSSPNSKNEKALGRKINSWESSRSGHSFLSNLHLRNGELVIHEKGFYYIYSQTAFRFKEEIKENTKNDKQMVQYIYKYTSYPDPILLMKSARNSCWSKDAEYGLYSIYQGGIFELKENDRIFVSVTNEGLVDMSHEASFFGAFLVG
notes: Untagged, from pAPOK5.0
With B8 the “KD ratio (mutant/wt)” value (DR5-IgG [4]) was 2.2 ratio.

B9: Flag.Apo2L.DR5-23 (ligand)
chain: VRERGPQRVAAHITGTRGRSNTLSSPNSKNEKALGRKINSWESSRSGHSFLSNLHLRNGELVIHEKGFYYIYSQTAFKFREEIKENTKNDKQMVQYIYKYTSYPDPILLMKSARNSCWSKDAEYGLYSIYQGGIFELKENDRIFVSVTNESLLDMEHEASFFGAFLVG
notes: as for B2
In the case of B9, the “DR5 KD (mut/wt)” value (DR5-IgG [2]) is reported as 2.4 ratio, the “IC50 ratio (mutant/wt)” value (DR5-IgG [3]) is reported as 2.3 ratio and the “IC50 ratio (mutant/wt)” value (DcR2-IgG) is reported as 24 ratio.

B10: Apo2L.DR5-8B (ligand)
chain: VRERGPQRVAAHITGTRGRSNTLSSPNSKNEKALGRKINSWESSRSGHSFLSNLHLRNGELVIHEKGFYYIYSQTQFKFREEIKENTKNDKQMVQYIYKYTSYPDPILLMKSARNSCWSKDAEYGLYSIYQGGIFELKENDRIFVSVTNEHLIDMDHEASFFGAFLVG
notes: as for B3
With B10 the “DR5-binding (ratio relative to wild-type Apo2L)” value (DR5-IgG [1]) was 0.6 ratio.

B11: Apo2L/TRAIL(114-281) mutant DR5-21 (ligand)
chain: VRERGPQRVAAHITGTRGRSNTLSSPNSKNEKALGRKINSWESSRSGHSFLSNLHLRNGELVIHEKGFYYIYSQTAFKFKEEIKENTKNDKQMVQYIYKYTSYPDPILLMKSARNSCWSKDAEYGLYSIYQGGIFELKENDRIFVSVTNEDLLNMEHEASFFGAFLVG
notes: Untagged, from pAPOK5.0; h-0007 lists D267Q
In the case of B11, the “KD ratio (mutant/wt)” value (DR5-IgG [4]) is reported as 1.2 ratio.

B12: Apo2L/TRAIL(114-281) mutant DR5-5 (ligand)
chain: VRERGPQRVAAHITGTRGRSNTLSSPNSKNEKALGRKINSWESSRSGHSFLSNLHLRNGELVIHEKGFYYIYSQTSFRFTEEIKENTKNDKQMVQYIYKYTSYPDPILLMKSARNSCWSKDAEYGLYSIYQGGIFELKENDRIFVSVTNEGLLDMNHEASFFGAFLVG
notes: Untagged, from pAPOK5.0
With B12 the “KD ratio (mutant/wt)” value (DR5-IgG [4]) was 2.5 ratio.

B13: Flag.Apo2L.DR5-8 (ligand)
chain: VRERGPQRVAAHITGTRGRSNTLSSPNSKNEKALGRKINSWESSRSGHSFLSNLHLRNGELVIHEKGFYYIYSQTQFKFREEIKENTKNDKQMVQYIYKYTSYPDPILLMKSARNSCWSKDAEYGLYSIYQGGIFELKENDRIFVSVTNERLLQMDHEASFFGAFLVG
notes: also called Flag-Apo21.DR5-8; not shown: N-terminal flag tag from pFLAG-MAC
For B13, the “DR5 KD (mut/wt)” value (DR5-IgG [2]) was 0.8 ratio and the “IC50 ratio (mutant/wt)” value (DR5-IgG [3]) was 0.7 ratio.

B14: Flag.Apo2L.DR4-9 (ligand)
chain: VRERGPQRVAAHITGTRGRSNTLSSPNSKNEKALGRKINSWESSRSGHSFLSNLHLRNGELVIHEKGFYYIYSQTAFRFSEEIKERTRNDKQMVQYIYKWTDYPDPILLMKSARNSCWSKDAEYGLYSIYQGGIFELKENDRIFVSVTNEHLIDMDHEASFFGAFLVG
notes: as for B2
In the case of B14, the “DR5 KD (mut/wt)” value (DR5-IgG [2]) is reported as 1200 ratio, the “IC50 ratio (mutant/wt)” value (DcR2-IgG) is reported as 18 ratio and the “IC50 ratio (mutant/wt)” value (DcR1 receptor-IgG) is reported as 4 ratio.

B15: Apo2L/TRAIL(114-281) mutant DR5-4 (ligand)
chain: VRERGPQRVAAHITGTRGRSNTLSSPNSKNEKALGRKINSWESSRSGHSFLSNLHLRNGELVIHEKGFYYIYSQTAFRFREEIKENTKNDKQMVQYIYKYTSYPDPILLMKSARNSCWSKDAEYGLYSIYQGGIFELKENDRIFVSVTNEQLLDMNHEASFFGAFLVG
notes: Untagged, from pAPOK5.0
B15 was tested, and the “KD ratio (mutant/wt)” value (DR5-IgG [4]) was 1.3 ratio.

B16: DR4-selective phage clone 11 (ligand)
chain: SEETISTVQEKQQNISPLVRERGPQRVAAHITGTRGRSNTLSSPNSKNEKALGRKINSWESSRSGHSFLSNLHLRNGELVIHEKGFYYIYSQTAFRFSEEIKEGTSNDKQMVQYIYKWTDYPDPILLMKSARNSCWSKDAEYGLYSIYQGGIFELKENDRIFVSVTNEHLIDMDHEASFFGAFLVG
notes: also called DR4-11
B16: no binding (BSA); no binding (tested: 1000 nM) (DR5-IgG [5]).

B17: DR4-selective phage clone 13 (ligand)
chain: SEETISTVQEKQQNISPLVRERGPQRVAAHITGTRGRSNTLSSPNSKNEKALGRKINSWESSRSGHSFLSNLHLRNGELVIHEKGFYYIYSQTAFRFKEEIKEGTGNDKQMVQYIYKWTDYPDPILLMKSARNSCWSKDAEYGLYSIYQGGIFELKENDRIFVSVTNEHLIDMDHEASFFGAFLVG
notes: also called DR4-13
B17: no binding (BSA); no binding (tested: 1000 nM) (DR5-IgG [5]).
